Experimental findings from patent US20160362487A1 (Regeneron, published 2016) are described below.

In test [1] the target is T1, biotinylated hIL-33 protein (R&D systems, Cat #3625-IL/CF) (human, UniProt O95760 112-270, biotinylated (sites not given)).
T1 construct: Same commercial protein as m21, biotin-labelled; also called biotin-hIL-33
T1 sequence (looked up): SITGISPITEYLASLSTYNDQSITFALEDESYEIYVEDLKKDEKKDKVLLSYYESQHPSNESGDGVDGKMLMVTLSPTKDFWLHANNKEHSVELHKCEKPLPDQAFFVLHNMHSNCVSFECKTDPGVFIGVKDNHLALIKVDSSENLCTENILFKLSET
The test is described as follows: competition ELISA, 30 pM biotin-hIL-33 on coated hST2-hFc. Here is the method:
(§1) The ability of anti-IL-33 antibodies to block either human IL-33 (hIL-33) or cynomologus monkey IL-33 binding to the human ST2 receptor was measured using a competition sandwich ELISA. […] The antibody/IL-33 mixtures were incubated for 1 hour at room temperature before they were transferred to the hST2-hFc-coated microtiter plates. After incubating for 1 hour at room temperature, the wells were then washed, and plate-bound biotin-hIL-33 was detected with streptavidin conjugated with horse-radish peroxidase (HRP) (Thermo Scientific, Cat # N200), and plate-bound MfIL-33-6His was detected with a HRP conjugated anti-His monoclonal antibody (Qiagen, #34460). All samples were developed with a TMB solution (BD biosciences, #51-2607KC) to produce a colorimetric reaction and then quenched by acidification with 1M sulfuric acid before measuring absorbance at 450 nm on a Victor X5 plate reader. Data analysis was performed using a sigmoidal dose-response model within Prism™ software. […] Percent blockade was calculated as the ratio of the reduction in signal observed in the presence of antibody relative to the difference between the signal with IL-33 alone and background (signal from HRP-conjugated secondary antibody or streptavidin alone). The absorbance measured for the constant concentration of biotin-hIL-33 or MfIL-33-6His alone is defined as 0% blocking and the absorbance measured for no added IL-33 is defined as 100% blocking.

The target in test [2] is T2, cynomolgus monkey IL-33 expressed with a C-terminal hexahistidine tag (cynomolgus monkey).
T2 construct: also called MfIL-33-6His; Mf-IL-33-6His
T2 chain: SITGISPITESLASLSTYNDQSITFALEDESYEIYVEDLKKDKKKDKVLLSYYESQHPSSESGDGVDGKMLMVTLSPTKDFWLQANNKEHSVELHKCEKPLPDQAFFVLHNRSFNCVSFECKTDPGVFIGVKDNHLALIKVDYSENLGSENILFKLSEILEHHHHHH
The test is described as follows: competition ELISA, 150 pM MfIL-33-6His on coated hST2-hFc. Here is the method: as §1

In test [3] the target is T3, human IL-33 (R&D Systems, #3625-IL-010/CF) (human, UniProt O95760 112-270).
T3 construct: Commercial recombinant protein; also called hIL-33; interleukin-33
T3 sequence (looked up): T1 sequence (looked up)
The test is described as follows: SPR 37C, pH6.0 chase, mAb captured. Here is the method: (§2) Equilibrium dissociation constants (KD values) for IL-33 binding to purified anti-IL-33 monoclonal antibodies were determined using a real-time surface plasmon resonance biosensor using a Biacore 4000 instrument. The Biacore sensor surface was first derivatized by amine coupling with either a polyclonal rabbit anti-mouse antibody (GE, # BR-1008-38) or with a monoclonal mouse anti-human Fc antibody (GE, # BR-1008-39) to capture anti-IL-33 monoclonal antibodies expressed with mouse or with human IgG4 constant regions, respectively. All Biacore binding studies were performed in 0.01M ADA pH 7.4, 0.15M NaCl, 3 mM EDTA, and 0.05% v/v Surfactant Tween-20 (ABS-ET running buffer). […] Association of either hIL-33 or MfIL-33-6His to the captured monoclonal antibody was monitored for 4 minutes and their dissociation in ABS-ET running buffer was monitored for 10 minutes. The effect of reduced pH on the binding of each anti-IL-33 antibody to either hIL-33 or MfIL-33-6His was studied using an in-line pH chase assay format in 0.01M ADA pH 6.0, 0.15M NaCl, 3 mM EDTA, and 0.05% v/v Surfactant Tween-20 (ABS-ET pH6 buffer). To achieve this, association of either hIL-33 or MfIL-33-6His to the captured monoclonal antibody was monitored for 4 minutes in ABS-ET running buffer. Following a 30 second dissociation of either hIL-33 or MfIL-33-6His in ABS-ET running buffer, ABS-ET pH6 buffer was injected for 3 minutes, and the analyte dissociation under the low-pH conditions was measured. All the binding kinetic experiments were performed at both 25° C. and 37° C. Kinetic association (kₐ) and dissociation (kd) constants were determined by fitting the real-time sensorgrams to a 1:1 binding model using Scrubber 2.0c curve fitting software. Binding dissociation equilibrium constants (KD) and dissociative half-lives (t½) were calculated from the kinetic rate constants as: […]

Test [4] addresses T2, cynomolgus monkey IL-33 expressed with …. The test can be described thus: SPR 37C, pH6.0 chase, mAb captured. As to the method: as §2
The target in test [5] is T3, human IL-33 (R&D Systems, …). The test is described as follows: BLI; hIL-33 pre-mixed with mAb-2 H1M9565N. As to the method:
Binding competition between a panel of different anti-IL-33 monoclonal antibodies was determined using a real time, label-free bio-layer interferometry assay on an Octet® HTX biosensor (ForteBio, A Division of Pall Life Sciences). The experiment was performed at 25° C. using a buffer of 0.01M HEPES pH7.4, 0.15M NaCl, 0.05% v/v Surfactant Tween-20, and 0.1 mg/ml BSA (HBS-ET kinetics buffer) with the plate shaking at a speed of 1000 rpm. To assess whether two antibodies were able to compete with one another for binding to human IL-33, a pre-mix assay format was used where 100 nM of human IL-33 (R&D Systems; #3625-IL-010/CF) was pre-mixed with 500 nM of different anti-IL-33 monoclonal antibodies (subsequently referred to as mAb-2) for at least 2 hours prior to running the binding competition assay. […] Following the capture step, unoccupied anti-mouse Fc polyclonal antibody and anti-human Fc polyclonal antibody on the Octet biosensors were saturated by submerging them for 4 minutes into wells containing 200 μg/mL of a non-specific monoclonal antibody with a mouse Fc or with a human Fc, respectively. Finally, the Octet biosensors were immersed for 4 minutes into wells containing the pre-mixed samples of 100 nM of human IL-33 and 500 nM of mAb-2. At the end of each cycle, the non-covalently captured anti-IL-33 antibodies along with the bound pre-complex of human IL-33 and mAb-2 were removed from the biosensors using three alternate 20 second immersions into 10 mM HCl followed by submerging into HBS-ET kinetics buffer. The biosensors were washed in HBS-ET kinetics buffer in between every step of the experiment. The real-time binding response was monitored during the binding events, and the binding response (in units of nm) at the end of every step was recorded.
(Biolayer interferometry detects binding as a change in optical thickness at a sensor tip.)

Changes are numbered by the printed parent chain. Names may count otherwise.

B1: H1M9568N (antibody, mouse IgG1, V domains shown)
VH: QVLLVQSGAEVKKPGATVKVSCKASGSTFTGYYMHWVRQAPGQGLEWMGWINPNNGGTNYAQKFQGRVTMTRDTSISTAYMELSRLRSDDTAVYYCARELRYNWKSWGQGTLVTVSS
VL: EIVLTQSPGTLSLSPGERVTLSCRASQSVGRPYLAWYQQIPGQAPRLLIYGASSRATDIPDRFSGNGSGTDFTLTISRLEPEDFAVYYCQQYDNSPYTFGQGTRLEIK
notes: Human variable domains, mouse IgG1 Fc (H1M)
By IC50 is commonly meant the midpoint of a concentration-inhibition curve. By koff is commonly meant the rate constant with which the complex falls apart. What is called t½ is the time in which the quantity being followed falls by half. As to B1, in test [1], the “% Maximum blocking” value came to 55% and the IC50 amounted to 0.19 nM. In test [2], the “% Maximum blocking” value came out at 38% and the concentration for half-maximal inhibition (IC50) came out at 0.84 nM. Further, in test [3], the koff was determined as 0.0011 s⁻¹, the t½ worked out at 10 min and the “t½ Ratio (pH 7.4/pH 6.0)” value came out at 1.1. For the same molecule, in test [4], the koff worked out at 0.00224 s⁻¹, the t½ worked out at 5 min and the “t½ Ratio (pH 7.4/pH 6.0)” value is 1.3. For the same molecule, the “mAb-1 Binding to the Pre-complex of mAb-2 & hIL-33” value (from here on “mAb-1 Binding to the Pre-complex”) in test [5] worked out at 0.08 nm.

B2: H4H9660P (antibody, human IgG4, V domains shown)
VH: EVQLVESGGGLVQPGGSLRLSCAASGITLSSYGMSWVRQAPGKGLEWVASIFGSGGGPYYADSVKGRFTMSRDNSKNTLYLQMNSLRAEDTAVYYCAKDRYSGSYYGGFDYWGRGTLVTVSS
VL: DIQMTQSPSSVSASVGDRVTITCRASQGITSWLAWYQQKPGKAPTLLIYAASSLQTGVPSRFSGSGSGTDFTLTISSLQPEHFATYYCQQANSFPPTFGGGTKVEIK
notes: Human IgG4 Fc (H4H)
With B2, in test [1], the “% Maximum blocking” value stood at 57% and the IC50 was 0.31 nM. In test [2], the “% Maximum blocking” value stood at 68% and the IC50 was 4.2 nM. In addition, in test [3], the koff stood at 0.00323 s⁻¹, the t½ worked out at 4 min and the “t½ Ratio (pH 7.4/pH 6.0)” value was found to be 6.8. Besides, in test [4], the koff came to 0.00463 s⁻¹, the t½ came out at 2.5 min and the “t½ Ratio (pH 7.4/pH 6.0)” value worked out at 1. The “mAb-1 Binding to the Pre-complex” value in test [5] amounted to 0.53 nm.

B3: H4H9662P (antibody, V domains shown)
VH: EVQLVESGGGLVQPGGSLRLSCAASGFTFSSYALTWVRQAPGKGLEWVSFISGSGGRPFYADSVKGRFTISRDNSKNMLYLQMNSLRAEDTAIYYCAKSLYTTSWYGGFDSWGQGTLVTVSS
VL: B2 VL with I29V, T30V, T45K, T56S, H82D, A91S, P96F, F98L, G100P, E105D
notes: Human IgG4 Fc (H4H)
On to B3, for which, in test [1], the “% Maximum blocking” value stood at 77% and the half-maximal inhibitory concentration (IC50) worked out at 1 nM. Further, in test [2], the “% Maximum blocking” value is 87% and the IC50 was 0.86 nM. Also, in test [3], the koff stood at 0.00383 s⁻¹, the t½ came out at 3 min and the “t½ Ratio (pH 7.4/pH 6.0)” value came out at 6.2. In addition, in test [4], the koff turned out to be 0.00168 s⁻¹, the t½ turned out to be 7 min and the “t½ Ratio (pH 7.4/pH 6.0)” value turned out to be 1.1. In test [5], the “mAb-1 Binding to the Pre-complex” value is 0.57 nm.

B4: H4H9663P (antibody, human IgG4, V domains shown)
VH: QVQLVQSGAEVKKPGASVKVSCKASGYTFTGHYMYWMRQAPGQGLEWMGWINPNSGGTNYAQKFQDRVTMTRDTSISTAYMELSRLRSDDTAVYYCARGRYGSSWYGGFEYWGQGTLVTVSS
VL: B2 VL with T45N, S52A, T56S, H82D, A84T, N92Y, F94L, P96L
notes: Human IgG4 Fc (H4H)
For B4, in test [1], the “% Maximum blocking” value is 74% and the IC50 came out at 0.5 nM. In test [2], the “% Maximum blocking” value stood at 81% and the IC50 was found to be 1.2 nM. Also, in test [3], the koff came to 0.00462 s⁻¹, the t½ worked out at 3 min and the “t½ Ratio (pH 7.4/pH 6.0)” value came to 3.7. In addition, in test [4], the koff was found to be 0.00354 s⁻¹, the t½ was found to be 3.3 min and the “t½ Ratio (pH 7.4/pH 6.0)” value was 1. In addition, in test [5], the “mAb-1 Binding to the Pre-complex” value came out at 0.54 nm.

B5: H4H9640P (antibody, human IgG4, V domains shown)
VH: QVQLQESGPGLVKPSETLSLTCTVSGGSISSYYWSWIRQPPGKGLELIGYIYYSGSTNYNPSLKSRVTISVDTSKNHFSLKLSSVTAADTAVYYCARSQYTSSWYGSFDIWGQGTMVTVSS
VL: DIQMTQSPSSVSASVGDRVTITCRASQGISTWLAWFQQKPGKAPKLLIYAASTLQGGVPSRFSGSGSGPEFTLTISSLQPEDFATYYCQQANSFPWTFGQGTKVEIK
notes: Human IgG4 Fc (H4H)
Regarding B5, in test [1], the “% Maximum blocking” value worked out at 78% and the concentration for half-maximal inhibition (IC50) came out at 0.35 nM. Besides, in test [2], the “% Maximum blocking” value was found to be 73% and the IC50 turned out to be 3.5 nM. Moreover, in test [3], the koff was determined as 0.00265 s⁻¹, the t½ worked out at 4 min and the “t½ Ratio (pH 7.4/pH 6.0)” value amounted to 4.6. In test [4], the koff was determined as 0.00226 s⁻¹, the t½ was found to be 5 min and the “t½ Ratio (pH 7.4/pH 6.0)” value is 0.5. In addition, the “mAb-1 Binding to the Pre-complex” value in test [5] worked out at 0.57 nm.

B6: H4H9659P (antibody, human IgG4, V domains shown)
VH: QVQLVQSGAEVKKPGASVKVSCKASGYTFNSYGISWVRQAPGQGLEWMGWISSHNGNSHYVQKFQGRVSMTTDTSTSTAYMELRSLRSDDTAVYYCARHSYTTSWYGGFDYWGQGTLVTVSS
VL: B2 VL with I29F, T30S, T45Q, T56S, T69S, H82D, P96L
notes: Human IgG4 Fc (H4H)
For the molecule B6, in test [1], the “% Maximum blocking” value was 78% and the IC50 came out at 0.4 nM. For the same molecule, in test [2], the “% Maximum blocking” value was found to be 92% and the IC50 was found to be 0.6 nM. Also, in test [3], the koff was 0.00299 s⁻¹, the t½ worked out at 4 min and the “t½ Ratio (pH 7.4/pH 6.0)” value is 7.4. In test [4], the koff was found to be 0.00102 s⁻¹, the t½ turned out to be 11 min and the “t½ Ratio (pH 7.4/pH 6.0)” value amounted to 0.5. In addition, the “mAb-1 Binding to the Pre-complex” value in test [5] was found to be 0.52 nm.
